Measured values taken from patent US20080076129A1, “Method of Detecting an Increased Susceptibility to Breast Cancer” (priority 2000, published 2008).

Tests used:
[1] = molecular target: T1, CYP1B1 (Homo sapiens, UniProt Q16678, L432V); assay: Assay of CYP1B1 E2 hydroxylation activity; type: biochemical; conditions: text and FIG. 4; read-out: 2-OH-E2 hydroxylation Km
T1 construct: made in house; host or cells: Escherichia coli DH5αF′Iq
T1 sequence (Q16678 26-543 L432V): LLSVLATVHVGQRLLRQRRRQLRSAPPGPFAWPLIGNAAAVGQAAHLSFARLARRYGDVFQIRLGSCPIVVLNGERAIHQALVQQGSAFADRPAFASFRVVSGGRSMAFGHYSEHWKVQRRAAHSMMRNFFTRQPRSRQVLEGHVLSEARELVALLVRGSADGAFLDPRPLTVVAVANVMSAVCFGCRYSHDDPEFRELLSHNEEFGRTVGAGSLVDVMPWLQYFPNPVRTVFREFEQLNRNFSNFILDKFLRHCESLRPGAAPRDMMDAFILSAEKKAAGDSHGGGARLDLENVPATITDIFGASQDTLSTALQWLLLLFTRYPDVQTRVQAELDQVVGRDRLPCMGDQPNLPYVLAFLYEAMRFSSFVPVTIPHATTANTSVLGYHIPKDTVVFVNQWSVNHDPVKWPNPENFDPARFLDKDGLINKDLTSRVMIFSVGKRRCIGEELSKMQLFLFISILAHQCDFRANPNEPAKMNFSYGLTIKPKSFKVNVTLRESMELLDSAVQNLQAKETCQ
Procedure: (§1) Assay of CYP1B1 E2 Hydroxylation Activity. Purified CYP1B1 (200 pmol) was reconstituted with a 2-fold molar amount of recombinant rat NADPH-P450 reductase (400 pmol), purified as previously described, and 60 μg of L-α-dilauroyl-sn-glycero-3-phosphocholine in the presence of sodium cholate (0.005%, w/v) in 0.4 ml of 100 mM potassium phosphate buffer, pH 7.4, containing varying concentrations of E2 (2, 3, 6, 9, 12, 15, 20, 40, 60, 80, and 100 μM) and 1 mM ascorbate. An NADPH-generating system consisting of 5 mM glucose 6-phosphate and 0.5 U of glucose-6-phosphate dehydrogenase/ml was added and reactions initiated by adding NADP+ to a final concentration of 0.5 mM. Reactions proceeded for 10 min at 37° C. with gentle shaking and then were terminated by addition of 2 ml CH2Cl2.
(§2) Extraction and Gas Chromatography/Mass Spectrometry Analysis of E2 and Metabolites. A deuterated internal standard (100 μl of 8 mg/liter E2-2, 4, 16, 16-d4 in methanol; CDN Isotopes, Pointe-Claire, Quebec) was added and all steroids extracted into CH2Cl2 by vortex mixing for 30 s. 1.5 ml of the CH2Cl2 fraction was evaporated to dryness under air and volatile TMS derivatives prepared by heating the residue with 100 μl of 50% NO-bis(trimethylsilyl)trifluoroacetamide/1% trimethyl chlorosilane in acetonitrile at 56° C. for 30 min. The TMS derivatives of E2 and its metabolites were separated by gas chromatography (H-P 5890, Hewlett-Packard, Wilmington, Del.) on a 5% phenyl methyl silicone stationary phase fused silica capillary column (30 m×0.2 mm×0.5 μm film, HP5; Hewlett-Packard). Helium carrier gas was used at a flow of 1 ml/min. The injector was operated at 250° C., with 2 μl injected in the splitless mode, with a purge (60 ml/min helium) time of 0.6 min. The oven temperature was held at 189° C. for 0.5 min, then raised at 6° C./min to 250° C. where it was held for 17 min, then raised to 300° C. at 8° C./min to give a total run time of 35.42 min. […] The EI mass spectrometer (H-P 5970) was operated in the selected ion monitoring mode from 18 to 34 min. Ions monitored were TMS2-E2-d4 420, 288, 330; TMS2-E2 416, 285, 326; TMS3-2-OH-E2 504, 373; TMS3-4-OH-E2 504, 373, 325; TMS3-16α-OH-E2 345, 311, 504. The instrument was calibrated by simultaneous preparation of an 11-point calibration over the range […]/tube of each compound. […] Internal standard added prior to extraction compensated for deviation from 100% recovery.
(§3) Statistical Analysis. Kinetic parameters (Km and kcat) were determined by nonlinear regression analysis using the computer program GraphPad PRISM (San Diego, Calif.).

[2] = tested on: CYP1B1; assay: Assay of CYP1B1 E2 hydroxylation activity; type: biochemical, human; conditions: for 2-OH-Estradiol kcat: E2 2-hydroxylation; for 4-OH-Estradiol kcat: E2 4-hydroxylation; for 16a-OH-Esrradiol kcat: E2 16α-hydroxylation
Procedure: as §1, §2, §3

B1: Wild type: purified recombinant His-tagged CYP1B1 with 48Arg, 119Ala, 432Val, 453Asn (protein)
chain: HHHHHHLLSVLATVHVGQRLLRQRRRQLRSAPPGPFAWPLIGNAAAVGQAAHLSFARLARRYGDVFQIRLGSCPIVVLNGERAIHQALVQQGSAFADRPAFASFRVVSGGRSMAFGHYSEHWKVQRRAAHSMMRNFFTRQPRSRQVLEGHVLSEARELVALLVRGSADGAFLDPRPLTVVAVANVMSAVCFGCRYSHDDPEFRELLSHNEEFGRTVGAGSLVDVMPWLQYFPNPVRTVFREFEQLNRNFSNFILDKFLRHCESLRPGAAPRDMMDAFILSAEKKAAGDSHGGGARLDLENVPATITDIFGASQDTLSTALQWLLLLFTRYPDVQTRVQAELDQVVGRDRLPCMGDQPNLPYVLAFLYEAMRFSSFVPVTIPHATTANTSVLGYHIPKDTVVFVNQWSVNHDPLKWPNPENFDPARFLDKDGLINKDLTSRVMIFSVGKRRCIGEELSKMQLFLFISILAHQCDFRANPNEPAKMNFSYGLTIKPKSFKVNVTLRESMELLDSAVQNLQAKETCQ
Q: Which Km [1] does the source give for B1 here?
A: 34 ± 4 µM

Q: And the 2-OH-Estradiol kcat [2]?
A: 0.0317 ± 0.0017 s⁻¹

Q: What about the 2-OH-Estradiol kcat ([2]; listed as Wild type CYP1B1) of the same molecule?
A: 0.0317 ± 0.0017 s⁻¹

Q: And the 2-OH-Estradiol kcat ([2]; listed as wild type CYP1B1)?
A: 0.0317 ± 0.0017 s⁻¹

Q: What about the 4-OH-Estradiol kcat [2] of the same molecule?
A: 0.0733 ± 0.0067 s⁻¹

Q: What about the 4-OH-Estradiol kcat ([2]; listed as Wild type CYP1B1) of the same molecule?
A: 0.0733 ± 0.0067 s⁻¹

Q: What about the 4-OH-Estradiol kcat ([2]; listed as wild type CYP1B1) of the same molecule?
A: 0.0733 ± 0.0067 s⁻¹

Q: And the 16a-OH-Esrradiol kcat [2]?
A: 0.005 ± 0.00033 s⁻¹

Q: And the 16a-OH-Esrradiol kcat ([2]; listed as Wild type CYP1B1)?
A: 0.005 ± 0.00033 s⁻¹

Q: And the 16a-OH-Esrradiol kcat ([2]; listed as wild type CYP1B1)?
A: 0.005 ± 0.00033 s⁻¹
